Test results reported in publication PMC12646314, “Structure and encapsulation of carbonic anhydrase within the α-carboxysome” (Proceedings of the National Academy of Sciences of the …, 2025).

Tests used:
[1] = target: the molecule itself; assay: cryo-EM structure; single-particle cryo-EM of purified T = 4 minishell/CsoSCA^ΔC (2.36 Å symmetry relaxed) and minishell/CsoSCA-C (3.05 Å); internal density seen at low contour, disordered
[2] = target: the molecule itself; assay: SEC-MALS; Superdex 200 Increase 10/300 GL, 0.70 mL/min, Buffer W (100 mM Tris/HCl pH 8, 150 mM NaCl, 1 mM EDTA), room temperature; injected at 5.6 mg/mL (CsoSCA), 0.9 mg/mL (CsoSCA-N), 1 mg/mL (CsoSCA^ΔC), 1.9 mg/mL (CsoSCA-C)
[3] = target: T1, CsoS4A-CsoS1A minishell (Construct 4, S4A-S1A) (Halothiobacillus neapolitanus, UniProt O85043 1-83; P45689 1-98); assay: co-purification with assembled minishells (sucrose cushion and gradient, anion exchange), immunoblot; CsoSCA constructs coexpressed with minishell constructs in E. coli TOP10; minishells purified; samples normalised to CsoS1A; anti-His blot; conditions: partners not purified
T1 construct: CsoS4A, shell pentamer of H. neapolitanus; CsoS1A, major shell hexamer of H. neapolitanus; Icosahedral shells, T = 3 and T = 4 populations; also called minishells; mini-α-shells; source: E. coli TOP10, purified (sucrose cushion and gradient, HiTrap Q FF anion exchange)
T1 sequence 1: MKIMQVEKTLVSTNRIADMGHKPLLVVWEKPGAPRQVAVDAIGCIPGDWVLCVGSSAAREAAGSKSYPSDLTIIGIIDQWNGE
T1 sequence 2: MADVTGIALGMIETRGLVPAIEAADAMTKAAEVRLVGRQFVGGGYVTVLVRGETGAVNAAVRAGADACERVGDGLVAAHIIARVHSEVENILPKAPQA

| Binder | stoichiometry N [1] | also measured |
| --- | --- | --- |
| CsoS1A (the major shell hexamer) (natural protein, Halothiobacillus neapolitanus, CsoS1A, major alpha-carboxysome shell protein of H. neapolitanus; also called CsoS1A shell hexamer; source: E. coli TOP10, expressed from the minishell construct; in lysate (pull-down) and in purified minishells (cryo-EM)) MADVTGIALGMIETRGLVPAIEAADAMTKAAEVRLVGRQFVGGGYVTVLVRGETGAVNAAVRAGADACERVGDGLVAAHIIARVHSEVENILPKAPQA | 6 |  |
| CsoS4A (shell pentamer) (natural protein, Halothiobacillus neapolitanus, CsoS4A, alpha-carboxysome shell vertex protein of H. neapolitanus; also called CsoS4A pentamer; source: E. coli TOP10, expressed from the minishell construct, in purified minishells) MKIMQVEKTLVSTNRIADMGHKPLLVVWEKPGAPRQVAVDAIGCIPGDWVLCVGSSAAREAAGSKSYPSDLTIIGIIDQWNGE | 5 |  |
| Twin-Strep-GB1-CsoSCA (Halothiobacillus neapolitanus carboxysomal carbonic anhydrase) (enzyme, CsoSCA, alpha-carboxysomal beta-class carbonic anhydrase of Halothiobacillus neapolitanus; UniProt O85042; the domain scheme runs from residue 1 to 514; Vector pETM11; TEV protease was used to remove the tags only for DLS; also called HnCsoSCA; source: Superdex 200 for cryo-EM; not shown: Twin-Strep, N-terminal, kept) NTRNTRSKQRAPFGVSSSVKPRLDLIEQAPNPAYDRHPACITLPERTCRHPLTDLEANEQLGRCEDSVKNRFDRVIPFLQVVAGIPLGLDYVTRVQELAQSSLGHTLPEELLKDNWISGHNLKGIFGYATAKALTAATEQFSRKIMSEKDDSASAIGFFLDCGFHAVDISPCADGRLKGLLPYILRLPLTAFTYRKAYAGSMFDIEDDLAQWEKNELRRYREGVPNTADQPTRYLKIAVYHFSTSDPTHSGCAAHGSNDRAALEAALTQLMKFREAVENAHCCGASIDILLIGVDTDTDAIRVHIPDSKGFLNPYRYVDNTVTYAQTLHLAPDEARVIIHEAILNANRSDGWAKGNGVASEGMRRFIGQLLINNLSQIDYVVNRHGGRYPPNDIGHAERYISVGDGFDEVQIRNLAYYAHLDTVEENAIDVDVGIKIFTKLNLSRGLPIPIAIHYRYDPNVPGSRERTVVKARRIYNAIKERFSSLDEQNLLQFRLSVQAQDIGSPIEEVASA |  | stoichiometry N [2]: 6 |
| CsoSCA-His6 (CsoSCA fused to a C-terminal His6 tag) (enzyme, Halothiobacillus neapolitanus, UniProt O85042 1-514, looked up, CsoSCA of H. neapolitanus, UniProt O85042; called full-length CsoSCA in the discussion; also called full-length CsoSCA; source: E. coli TOP10, coexpressed with minishell constructs, co-purified with minishells; not shown: His6, C-terminal, kept) MNTRNTRSKQRAPFGVSSSVKPRLDLIEQAPNPAYDRHPACITLPERTCRHPLTDLEANEQLGRCEDSVKNRFDRVIPFLQVVAGIPLGLDYVTRVQELAQSSLGHTLPEELLKDNWISGHNLKGIFGYATAKALTAATEQFSRKIMSEKDDSASAIGFFLDCGFHAVDISPCADGRLKGLLPYILRLPLTAFTYRKAYAGSMFDIEDDLAQWEKNELRRYREGVPNTADQPTRYLKIAVYHFSTSDPTHSGCAAHGSNDRAALEAALTQLMKFREAVENAHCCGASIDILLIGVDTDTDAIRVHIPDSKGFLNPYRYVDNTVTYAQTLHLAPDEARVIIHEAILNANRSDGWAKGNGVASEGMRRFIGQLLINNLSQIDYVVNRHGGRYPPNDIGHAERYISVGDGFDEVQIRNLAYYAHLDTVEENAIDVDVGIKIFTKLNLSRGLPIPIAIHYRYDPNVPGSRERTVVKARRIYNAIKERFSSLDEQNLLQFRLSVQAQDIGSPIEEVASA |  | fold copurified CsoSCA, against minishells with CsoS2 [3]: ≥ 4 fold |
